Results taken from the nanobody polyreactivity screen of Harvey et al. (2022).

Test: yeast display, Sf9 membrane polyspecificity reagent, FACS + sequencing; frameworks hold sequencing errors
How it was run: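 Galactose induction of a Saccharomyces cerevisiae BJ5465 synthetic nanobody display library ran 36–48 hours. The cells were then stained for 1 hour at 4 °C with 10% biotinylated, detergent-solubilized Sf9 membrane reagent, pulled down on streptavidin microbeads and FACS-sorted into low and high (top ~1%) gates on expression and reagent-binding fluorescence. Labels for polyreactivity follow the gate of origin.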

Sequence | polyreactivity (PSR sort gate)
QVQLVESVGGLVQAGGSLRLSCAASGSIFAYNTMGWYRQAPGKERELVAAIRSRGGSTYYADSVKGRFTISRDNAKNTVYIQMNSLKPEDTPVSSCNAVGRARTLGSNTYGYWGQGTQVTVSS | high polyreactivity
QVQLVESGGGLVQAGGSLRLSYAASGSTFFFNALGWYRQAPGKERELVATISRDGSTNYADSVKGRFTISRDNAKNTVYLQINSLKPEDTAVYYCAAGWGWPYHQYDYWGQGTQVTVSS | low polyreactivity
QVQLVESGGGLVQAGGSLRLSCAASGYTFGDYAMGWYRQAPGKERELVASITQTGGSTYADSVKGRFTISRDNAKNTVYLQMNSLKPEDTAVYYCNARYPWWESLRQTDRGKGFDYWGQGTQVTVSS | low polyreactivity
QVQLVESGGGLVQAGGSLRLSCAASGFTFVRYAIGWYRQAPGKERELVSVISRSGGSTNYADSVKGRFTISRDNAKNTVYLQMNSLKPEDTAVYYCAASLQYRRVVKGGDYWGQGTQVTVSS | high polyreactivity
QVQLVESGGGLVQAGGSLRLSCAASGYTLDGYAMGWYRQAPGKEREFVAAIPFRGGGTYYADSVKGRFTISRDNAKNTDYLQMNSLKPEDTAVYYCNADTYDPFPWGSDYWGQGTQVTVSS | high polyreactivity
QVQLVESGGGLDQAGGSLRLSCAASGSTFGVYAMGWYRQAPGKERELVAAISSSTGSTYYADSVKGRFTISRDNAKNTVYLQMNSLKPEDTAVYYCAAEYDGPYYSFYPEQRYYWGQGTQVTVSS | low polyreactivity
QVQLVESGGGLVPAGGSLRLSCAASGSIFEGNAMGWYRQAPGKERELVAAISTTGGITYYADSVKGRFTISRDNAKNTVYLQMNSLKPEETAVYYCAADPSQPRIDSSNYDYWGQGTQVTVSS | low polyreactivity
QVQLVESGGGLVQAGGSLRLSCAASGRIFTGNVMGLYRQAPGKERELVAAITYRGGSTYYADSVKGRFTISRDNAKNTVYLQMNSLKPEDTAVYYCNTGWDPYGYDYWGQGTQVTVSS | low polyreactivity
QVQLVESGGGLVQAGGSLRLSCAASGSIIWLYAMGWYRQAPGKERELVAAISSGGSTYYADSVKGRFTISRDNAKNTVYLQMNSLKPEDTAVYYCNVDYWQPWQYDYWGQGTQVTVSS | high polyreactivity
QVQLVESGGGLVQAGGSLRLTCAASGFTFPYYAMGWYRQAPGKERELVAAIDWTGGSTYYADSVKGRFTISRDNAKNTVYLQMNSLKPEDTAVYYCNRELTSPRRWHVSRAYDYWGQGTQVTVSS | low polyreactivity
QVQLEESGGGLVQAGGSLRLSCAASARTIFGYAMGWYRQAPGKERELVAAINWGGASTYYADSVKGRFTISRDNAKNTVYLQMNSLKPEDTAVYYCAADSVPSRPTYGRYDYWGQGTQVTVSS | low polyreactivity
QVQLVESGGCLVQAGGSLRLSCAASGRTFSYYAMGWYRQAPGKVRELVAAISRRGGSTTYADSVKGRFTISRDNAKNTVYLQMNSLKPEDTAVYYCNTYPPAHREYASWGQGTQVTVSS | high polyreactivity
QVQLVESGGGLVQAGGSLRLSCAASGSTFLSYAMGWYRQAPGKERELVAVISWSGVSTYYADSVKGRFTISRDNAKNTVYLQMNSLNPEDTEVYYCNTGHHYIRTYGYWGQGTQVTVSS | low polyreactivity
QVQLVESGGGLVQAGGSLRLSCAASGIIFRGNALGWYRPAPGKERELVAAISRSGRTNYADSVKGRFTISRDNAKNTVYLQMNSLKPEDNAVYYCAVDKRYGRVVGRDYDYWGQGTQVTVSS | high polyreactivity
QVQLVESGGGLVQAGGSLRLSCAASGRTFRAYTMGWYRQAPGKERELVAAISTPGGSTYYADSVKGRFTISRDNAKNTVYLQMNSLKPEDTAVYYCAAGTFYYWLSYDYWGQGTQVTVSS | low polyreactivity
QVQLVESGGGLVQAGGSLRLSCAASGLIFPYYAMGWNRQAPGKESELVAASSGSGGRTYYADSVKGRFTISRDNAKITVYLQMNSRKPEDTAVYYCAAAVLDSYTRYIWYIYDYWGQGTQVTVSS | high polyreactivity

Sequence | polyreactivity (PSR sort gate)
QVQLVESGGGLVQAGCSLRLSCAASGSTFGYYTMGWYRQAPGKERELVAAITRSGGSTYYADSVKGRFTISRDNAKNSVYLQMTSLKPEDTAVYYCAADDYWTTFGYWGLGTQVTVSS | low polyreactivity
QVQLVESGGGLVQAGGSLRLSCAASGSIFRQYAMGWYRQAPGKERELVAAISRGGITYYADSVKGRFTISRDNAKNTVYLQMNSLKPEDTAVYYCAARYGRGERGGFYWGQGTQVTVSS | high polyreactivity
QVQLVESGGGLVQAGGSLRLSCAASGSIFRTNAMGWYRQAPGKERELVAAITTSGVTTYYADSVKGRFTISRDNPTNTVYLQMNSLKPEDTAVYYCNARDGRYLPRYDYWRQGTQVTVSS | low polyreactivity
QVQLEESGGCLVQAGGSLRLSCAASGSIFRIYAMGWYRQAPGKEREFVAAISSRGGRTYYAYSVKGRFTISRDNAKNTVYLQMNSLKPEDTAVYYCNARATRGSYYEYEYWGQGTQVTVSS | high polyreactivity
QVQLVESGGGLVQAGGSLRLSCAASGITYGIYSMGWYRQAPGKERELVAAIDGSDGSTYYADSVKGRFTISRDNAKNTVYLQMNSLKPEDTAVYYCNADTGGYYVTGSYLYNEYDYWGQGTQVTVSS | low polyreactivity
QVQLVESGGGLVQAGGSLRLSCAASGFIFSYYVMGWYREAPGKERELVAAISWNGGSTFYADSVKGRFTISRDNAKNSVYLQMNSLKPEDTAVYYCAAYPRFYGGKYGEYGYWGQGTQVTVSS | high polyreactivity
QVQLVESGGGLVQAGGSLRLSCAASGSIFNGNARGWYRQAPGKERELVAAITRRGGRTYYADSVKGRFTISRDNEKNTVYLQMNSLQPEDTAFYYCATPVDYKTGYYYWVQGTQVTVSS | high polyreactivity
QVQLVESGGGLVQAGGSLRLSCAASGIIFGDNAMGWYRQAPGKERELVAAIDSGGSTYYADSVKGRFTISRDNAKTTVYCPMNSLKPEDTAVYYCNAVTAFGYSYGGWDYDQYNYWGQGTQVTVSS | low polyreactivity
QVQLVESGGGLDQAGGSLRLSCDASGRIFGYYAMGWYRQAPGKERELVAAITWTGGGTYYADSVKGRFTISRDNAKNTVYIQMNSLKPEDTAVYYCAADPDSGQFPFDYWGQGTQVTVSS | low polyreactivity
QVQLVESGGGVVQAGGSLRLSCAASGLTFKFYAMGWYIQAPGKERELVAAINRSGSSTYYADSVKGRFTISRDNAKNTVYLQMNSLKPEDTAVYYCAKDSFTSTRQYDYWGQGTQVTVSS | low polyreactivity
QVQLVESGGGLVQAGCSLRLSCAASGLTLRHYAMGWYRQSPGKERELVAAISWNTGSTYYADSVKGRFTISRDNAKNTVYLQMNSLKPEDTAVYYCAAVPRAYYQGLYYWGQCTQVTVSS | high polyreactivity
QVQLVESGGGLVQAGGSLRLSCAASGRTFAFYTLGWYRQAPGKERELVAAITRNGSTSYADSVKGRFTISRDNAKNTVFLQMNRLKPEDTAVYYCATVGYPYTLWHQMDYWGQGTQVTVSS | low polyreactivity
QVQLVESGGGLVQAGGSLPLSCYDSGITIPDYYMGCFRQSPGKERELVAAITYRSGSTYNADSVKGRFTISRDNAKNTVYLQMNSLKQEDTAVFYCAAKRFLLRYYTKQYNYWGLGTQVTVSS | high polyreactivity
QVQLVESGGGLVQAGGSLRLSCAATGSTVDFYAMGWNRQAPRKERELVAAISWSAGSTYYADSVKGRFTISRDNAKNTVYLQMNSLKPEDTAVYYCNADYWGQGTQVTVSS | low polyreactivity
QVQLVETGGGLVQARGSLRLSCAASVSILYGNAMGWYRQAPGKERELVAAISRGGSTYYADSVKGRFTISRDNAKNTVYLQMNSLKPEDTAVYYCNALYTSYYRPSGMGYWGQGTQVTVSS | high polyreactivity
